Measurements taken from PMC9352680, “A comprehensive thermodynamic model for RNA binding by the Saccharomyces cerevisiae Pumilio protein PUF4”.

T1: PUF4 RNA-binding domain (Saccharomyces cerevisiae, UniProt P25339 537-888)
T1 sequence: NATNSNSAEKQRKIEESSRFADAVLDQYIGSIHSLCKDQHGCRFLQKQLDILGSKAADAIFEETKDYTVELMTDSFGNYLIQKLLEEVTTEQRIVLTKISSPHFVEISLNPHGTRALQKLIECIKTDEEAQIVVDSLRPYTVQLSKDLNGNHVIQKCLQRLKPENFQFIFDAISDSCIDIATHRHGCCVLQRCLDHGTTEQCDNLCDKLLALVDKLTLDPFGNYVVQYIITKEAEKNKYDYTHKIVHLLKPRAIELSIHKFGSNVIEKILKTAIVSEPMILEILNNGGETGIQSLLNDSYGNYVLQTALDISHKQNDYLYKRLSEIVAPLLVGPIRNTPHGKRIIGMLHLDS

B1: Id_ii_S2_P3E.2_K3.1_C3.2_[C-2G]_[T-1G]_H3.1_A3.1_F3.1_T3.2_[T9A]_[A10G] (ssRNA)
RNA: UUUGAUUAAUAUGAUAUCGUUCUUUCUGGUGUAUAUAAGUUCUUUCUCGAUAUCAUAUUAAUCUUU

Biological target: T1, PUF4 RNA-binding domain
Experiment: Mg; RNA-MaP; 20 mM Na-HEPES pH 7.4, 30 mM KOAc, 0.75 mM MgCl2, 0.1% Tween-20, 5% glycerol, 0.1 mg/mL BSA, 2 mM DTT; 25 C; 0.0125-409.6 nM protein
Conditions: tags: N-His6-TEV cleaved; C-SNAP kept, Cy3B-labelled; label: tethered on chip by stalled RNA polymerase

Binder	Kd [µM]
UCUCUUAAACACUUAUUAUUUCUCUU (ssRNA) [Id_ii_S1_P5E.4_K5.3_C5.2_[C-2A]_[T-1A]_H5.3_A5.1_F5.1_T5.2_[A12T]]	> 2.3
UCUCUUCAACACUUAUUACCUCUCUU (ssRNA) [Id_ii_S1_P5E.4_K5.3_C5.2_[T-1A]_H5.3_A5.1_F5.1_T5.2_[T11C]_[A12C]]	> 2.3
UCUCUUACACACUUAUUAGCUCUCUU (ssRNA) [Id_ii_S1_P5E.4_K5.3_C5.2_[C-2A]_[T-1C]_H5.3_A5.1_F5.1_T5.2_[T11G]_[A12C]]	> 2.3
UCUCUUAAACACUUAUUACUUCUCUU (ssRNA) [Id_ii_S1_P5E.4_K5.3_C5.2_[C-2A]_[T-1A]_H5.3_A5.1_F5.1_T5.2_[T11C]_[A12T]]	> 2.3
UCUCUUAUACACUUAUUACAUCUCUU (ssRNA) [Id_ii_S1_P5E.4_K5.3_C5.2_[C-2A]_H5.3_A5.1_F5.1_T5.2_[T11C]]	0.489
UCUCUUAAACACUUAUUAACUCUCUU (ssRNA) [Id_ii_S1_P5E.4_K5.3_C5.2_[C-2A]_[T-1A]_H5.3_A5.1_F5.1_T5.2_[T11A]_[A12C]]	> 2.3
UCUCUUAGACACUUAUUAAUUCUCUU (ssRNA) [Id_ii_S1_P5E.4_K5.3_C5.2_[C-2A]_[T-1G]_H5.3_A5.1_F5.1_T5.2_[T11A]_[A12T]]	> 2.3
UCUCUUCCACACUUAUUACUUCUCUU (ssRNA) [Id_ii_S1_P5E.4_K5.3_C5.2_[T-1C]_H5.3_A5.1_F5.1_T5.2_[T11C]_[A12T]]	> 2.3
UCUCUUAUACACUUAUUACGUCUCUU (ssRNA) [Id_ii_S1_P5E.4_K5.3_C5.2_[C-2A]_H5.3_A5.1_F5.1_T5.2_[T11C]_[A12G]]	0.907
UCUCUUAGACACUUAUUAUUUCUCUU (ssRNA) [Id_ii_S1_P5E.4_K5.3_C5.2_[C-2A]_[T-1G]_H5.3_A5.1_F5.1_T5.2_[A12T]]	> 2.3
UCUCUUCCACACUUAUUAAUUCUCUU (ssRNA) [Id_ii_S1_P5E.4_K5.3_C5.2_[T-1C]_H5.3_A5.1_F5.1_T5.2_[T11A]_[A12T]]	> 2.3
UCUCUUCCACACUUAUUACCUCUCUU (ssRNA) [Id_ii_S1_P5E.4_K5.3_C5.2_[T-1C]_H5.3_A5.1_F5.1_T5.2_[T11C]_[A12C]]	> 2.3
UCUCUUUGUAUUAUCUUCUCUU (ssRNA) [Ic_S1_P5E.1_K5.1_C5.1_H5.1_A5.1_F5.1_[T9C]_[A10T]_T5.1]	0.018
UCUCUUAUACACUUAUUAACUCUCUU (ssRNA) [Id_ii_S1_P5E.4_K5.3_C5.2_[C-2A]_H5.3_A5.1_F5.1_T5.2_[T11A]_[A12C]]	0.464
UCUCUUAAACACUUAUUACGUCUCUU (ssRNA) [Id_ii_S1_P5E.4_K5.3_C5.2_[C-2A]_[T-1A]_H5.3_A5.1_F5.1_T5.2_[T11C]_[A12G]]	> 2.3
UCUCUUCAACACUUAUUACAUCUCUU (ssRNA) [Id_ii_S1_P5E.4_K5.3_C5.2_[T-1A]_H5.3_A5.1_F5.1_T5.2_[T11C]]	> 2.3
UCUCUUUGUAUUAUACUCUCUU (ssRNA) [Ic_S1_P5E.1_K5.1_C5.1_H5.1_A5.1_F5.1_[T9A]_[A10C]_T5.1]	0.00248
UCUCUUCGACACUUAUUAACUCUCUU (ssRNA) [Id_ii_S1_P5E.4_K5.3_C5.2_[T-1G]_H5.3_A5.1_F5.1_T5.2_[T11A]_[A12C]]	> 2.3
UCUCUUCGACACUUAUUAUCUCUCUU (ssRNA) [Id_ii_S1_P5E.4_K5.3_C5.2_[T-1G]_H5.3_A5.1_F5.1_T5.2_[A12C]]	> 2.3
UCUCUUUGUAUUAUCCUCUCUU (ssRNA) [Ib_S1_P5E.1_K5.1_C5.1_H5.1_A5.1_F5.1_[T9C]_[A10C]_T5.1]	0.0268
UCUCUUCGACACUUAUUAAAUCUCUU (ssRNA) [Id_ii_S1_P5E.4_K5.3_C5.2_[T-1G]_H5.3_A5.1_F5.1_T5.2_[T11A]]	> 2.3

Binder	Kd [µM]
UCUCUUCAACACUUAUUAUGUCUCUU (ssRNA) [Id_ii_S1_P5E.4_K5.3_C5.2_[T-1A]_H5.3_A5.1_F5.1_T5.2_[A12G]]	> 2.3
UCUCUUAUACACUUAUUAAAUCUCUU (ssRNA) [Id_ii_S1_P5E.4_K5.3_C5.2_[C-2A]_H5.3_A5.1_F5.1_T5.2_[T11A]]	0.744
UCUCUUACACACUUAUUACCUCUCUU (ssRNA) [Id_ii_S1_P5E.4_K5.3_C5.2_[C-2A]_[T-1C]_H5.3_A5.1_F5.1_T5.2_[T11C]_[A12C]]	> 2.3
UCUCUUCCACACUUAUUACGUCUCUU (ssRNA) [Id_ii_S1_P5E.4_K5.3_C5.2_[T-1C]_H5.3_A5.1_F5.1_T5.2_[T11C]_[A12G]]	> 2.3
UCUCUUACACACUUAUUAUAUCUCUU (ssRNA) [Id_ii_S1_P5E.4_K5.3_C5.2_[C-2A]_[T-1C]_H5.3_A5.1_F5.1_T5.2]	> 2.3
UCUCUUAUACACUUAUUAGCUCUCUU (ssRNA) [Id_ii_S1_P5E.4_K5.3_C5.2_[C-2A]_H5.3_A5.1_F5.1_T5.2_[T11G]_[A12C]]	0.647
UCUCUUAUACACUUAUUACCUCUCUU (ssRNA) [Id_ii_S1_P5E.4_K5.3_C5.2_[C-2A]_H5.3_A5.1_F5.1_T5.2_[T11C]_[A12C]]	0.606
UCUCUUACACACUUAUUAAUUCUCUU (ssRNA) [Id_ii_S1_P5E.4_K5.3_C5.2_[C-2A]_[T-1C]_H5.3_A5.1_F5.1_T5.2_[T11A]_[A12T]]	> 2.3
UCUCUUCAACACUUAUUAGCUCUCUU (ssRNA) [Id_ii_S1_P5E.4_K5.3_C5.2_[T-1A]_H5.3_A5.1_F5.1_T5.2_[T11G]_[A12C]]	> 2.3
B1	0.0118
UCUCUUAAACACUUAUUAUAUCUCUU (ssRNA) [Id_ii_S1_P5E.4_K5.3_C5.2_[C-2A]_[T-1A]_H5.3_A5.1_F5.1_T5.2]	> 2.3
UCUCUUAUACACUUAUUAAUUCUCUU (ssRNA) [Id_ii_S1_P5E.4_K5.3_C5.2_[C-2A]_H5.3_A5.1_F5.1_T5.2_[T11A]_[A12T]]	0.517
UCUCUUAUACACUUAUUACUUCUCUU (ssRNA) [Id_ii_S1_P5E.4_K5.3_C5.2_[C-2A]_H5.3_A5.1_F5.1_T5.2_[T11C]_[A12T]]	0.666
UCUCUUCCACACUUAUUACAUCUCUU (ssRNA) [Id_ii_S1_P5E.4_K5.3_C5.2_[T-1C]_H5.3_A5.1_F5.1_T5.2_[T11C]]	> 2.3
UCUCUUCCACACUUAUUAACUCUCUU (ssRNA) [Id_ii_S1_P5E.4_K5.3_C5.2_[T-1C]_H5.3_A5.1_F5.1_T5.2_[T11A]_[A12C]]	> 2.3
UCUCUUCAACACUUAUUAAUUCUCUU (ssRNA) [Id_ii_S1_P5E.4_K5.3_C5.2_[T-1A]_H5.3_A5.1_F5.1_T5.2_[T11A]_[A12T]]	> 2.3
UCUCUUCAACACUUAUUAACUCUCUU (ssRNA) [Id_ii_S1_P5E.4_K5.3_C5.2_[T-1A]_H5.3_A5.1_F5.1_T5.2_[T11A]_[A12C]]	> 2.3
UCUCUUAUACACUUAUUAUAUCUCUU (ssRNA) [Id_ii_S1_P5E.4_K5.3_C5.2_[C-2A]_H5.3_A5.1_F5.1_T5.2]	0.33
UCUCUUUGUAUUAUCGUCUCUU (ssRNA) [Ib_S1_P5E.1_K5.1_C5.1_H5.1_A5.1_F5.1_[T9C]_[A10G]_T5.1]	0.0307
UCUCUUCAACACUUAUUAGAUCUCUU (ssRNA) [Id_ii_S1_P5E.4_K5.3_C5.2_[T-1A]_H5.3_A5.1_F5.1_T5.2_[T11G]]	> 2.3
UCUCUUAGACACUUAUUAACUCUCUU (ssRNA) [Id_ii_S1_P5E.4_K5.3_C5.2_[C-2A]_[T-1G]_H5.3_A5.1_F5.1_T5.2_[T11A]_[A12C]]	> 2.3

Binder	Kd [µM]
UCUCUUCCACACUUAUUAAAUCUCUU (ssRNA) [Id_ii_S1_P5E.4_K5.3_C5.2_[T-1C]_H5.3_A5.1_F5.1_T5.2_[T11A]]	> 2.3
UCUCUUCGACACUUAUUAUUUCUCUU (ssRNA) [Id_ii_S1_P5E.4_K5.3_C5.2_[T-1G]_H5.3_A5.1_F5.1_T5.2_[A12T]]	> 2.3
UCUCUUACACACUUAUUAAAUCUCUU (ssRNA) [Id_ii_S1_P5E.4_K5.3_C5.2_[C-2A]_[T-1C]_H5.3_A5.1_F5.1_T5.2_[T11A]]	> 2.3
UCUCUUCAACACUUAUUAUCUCUCUU (ssRNA) [Id_ii_S1_P5E.4_K5.3_C5.2_[T-1A]_H5.3_A5.1_F5.1_T5.2_[A12C]]	> 2.3
UCUCUUAUACACUUAUUAUUUCUCUU (ssRNA) [Id_ii_S1_P5E.4_K5.3_C5.2_[C-2A]_H5.3_A5.1_F5.1_T5.2_[A12T]]	0.517
UCUCUUACACACUUAUUAUUUCUCUU (ssRNA) [Id_ii_S1_P5E.4_K5.3_C5.2_[C-2A]_[T-1C]_H5.3_A5.1_F5.1_T5.2_[A12T]]	> 2.3
UCUCUUUGUAUUAUAGUCUCUU (ssRNA) [Ic_S1_P5E.1_K5.1_C5.1_H5.1_A5.1_F5.1_[T9A]_[A10G]_T5.1]	0.000924
UCUCUUAAACACUUAUUAAUUCUCUU (ssRNA) [Id_ii_S1_P5E.4_K5.3_C5.2_[C-2A]_[T-1A]_H5.3_A5.1_F5.1_T5.2_[T11A]_[A12T]]	> 2.3
UCUCUUAAACACUUAUUACCUCUCUU (ssRNA) [Id_ii_S1_P5E.4_K5.3_C5.2_[C-2A]_[T-1A]_H5.3_A5.1_F5.1_T5.2_[T11C]_[A12C]]	> 2.3
UCUCUUAUACACUUAUUAUCUCUCUU (ssRNA) [Id_ii_S1_P5E.4_K5.3_C5.2_[C-2A]_H5.3_A5.1_F5.1_T5.2_[A12C]]	0.435
UCUCUUCCACACUUAUUAGCUCUCUU (ssRNA) [Id_ii_S1_P5E.4_K5.3_C5.2_[T-1C]_H5.3_A5.1_F5.1_T5.2_[T11G]_[A12C]]	> 2.3
UCUCUUAAACACUUAUUACAUCUCUU (ssRNA) [Id_ii_S1_P5E.4_K5.3_C5.2_[C-2A]_[T-1A]_H5.3_A5.1_F5.1_T5.2_[T11C]]	> 2.3
UCUCUUCGACACUUAUUACUUCUCUU (ssRNA) [Id_ii_S1_P5E.4_K5.3_C5.2_[T-1G]_H5.3_A5.1_F5.1_T5.2_[T11C]_[A12T]]	> 2.3
UCUCUUCUACACUUAUUAUAUCUCUU (ssRNA) [Id_ii_S1_P5E.4_K5.3_C5.2_H5.3_A5.1_F5.1_T5.2]	> 2.3
UCUCUUCUACACUUAUUACCUCUCUU (ssRNA) [Id_ii_S1_P5E.4_K5.3_C5.2_H5.3_A5.1_F5.1_T5.2_[T11C]_[A12C]]	> 2.3
UCUCUUCGACACUUAUUAAUUCUCUU (ssRNA) [Id_ii_S1_P5E.4_K5.3_C5.2_[T-1G]_H5.3_A5.1_F5.1_T5.2_[T11A]_[A12T]]	> 2.3
UCUCUUCCACACUUAUUAUAUCUCUU (ssRNA) [Id_ii_S1_P5E.4_K5.3_C5.2_[T-1C]_H5.3_A5.1_F5.1_T5.2]	> 2.3
UCUCUUAGACACUUAUUAAAUCUCUU (ssRNA) [Id_ii_S1_P5E.4_K5.3_C5.2_[C-2A]_[T-1G]_H5.3_A5.1_F5.1_T5.2_[T11A]]	> 2.3
UCUCUUCAACACUUAUUAAAUCUCUU (ssRNA) [Id_ii_S1_P5E.4_K5.3_C5.2_[T-1A]_H5.3_A5.1_F5.1_T5.2_[T11A]]	> 2.3
